One may read the Kd as the concentration at which binding is half-saturated.

Our source for the Kd and fold decrease in the binding affinity against wt N TAIL values is PMC5148173.

In assay [1] the target is N-terminally hexahistidine tagged N_TAIL R490S (measles virus (Edmonston B)) (UniProt P04851). In words: ITC; N_TAIL (25-180 uM) in the cell, XD (300-960 uM) in the microsyringe, 19 injections of 2 uL; 20 C; 10 mM Tris/HCl pH 8, 150 mM NaCl; single set of sites model. Background: In ITC the heat of successive injections is recorded.
In assay [2] the target is N-terminally hexahistidine tagged N_TAIL R497G (measles virus (Edmonston B)) (UniProt P04851). The description is as above.
The target of assay [3] is N-terminally hexahistidine tagged wt N_TAIL (C-terminal domain of the MeV nucleoprotein N, aa 401-525) (measles virus (Edmonston B)) (UniProt P04851). In words: ITC. The conditions noted are these: domain or fragment.
In assay [4] the target is N_TAIL S491L fused to a Gaussia luciferase fragment (glu-PCA) (measles virus) (UniProt P04851). In words: split reporter (BiFC, NanoBiT); KD estimated from the glu-PCA luminescence with the empirically determined equation relating luminescence and the ITC KD values (Fig 4).

In the case of “C-terminally hexahistidine tagged MeV XD (X domain of the phosphoprotein P, aa 459-507) (from UniProt P03422 459-507) (domain or fragment)”, in assay [1], the dissociation constant Kd is 20 µM and the fold decrease in the binding affinity against wt N TAIL was 7 fold. In assay [2], this substance yielded a Kd of 44 µM.

“C-terminally hexahistidine tagged MeV XD (X domain of the phosphoprotein P, aa 459-507) (from UniProt P03422 459-507)”: in assay [3], the Kd turned out to be 3 µM. Turning to “XD of the monomeric split-luciferase reassembly assay (glu-PCA) (from UniProt P03422 376-507) (domain or fragment)”, in assay [4], the Kd is 85 µM.
